In patent publication EP4703384A1 (Chia Tai Tianqing Pharmaceutical Group Co., Ltd., dated 2026):
Positions count from the first letter of the chain named. Blank lines part the entries; values can stand above or below the binder they belong to.

Columns and labels:
human GPRC5D protein = molecular target: T1, human GPRC5D protein (human, UniProt Q9NZD1 1-345); experiment: FACS on NCI-H929 cells
T1 construct: also called hGPRC5D; CHO-K1-hGPRC5D^hi

T cell surface CD3 [1] = molecular target: T2, T cell surface CD3 (human, UniProt P07766 23-207; P04234 22-171; P09693 23-182); experiment: FACS on human CD3+ T cells
T2 construct: CD3 is a complex of several chains; also called CD3^+ T cells

T cell surface CD3 [2] = molecular target: T2, T cell surface CD3; experiment: cell-based or functional assay

T1 sequence (Q9NZD1 whole entry): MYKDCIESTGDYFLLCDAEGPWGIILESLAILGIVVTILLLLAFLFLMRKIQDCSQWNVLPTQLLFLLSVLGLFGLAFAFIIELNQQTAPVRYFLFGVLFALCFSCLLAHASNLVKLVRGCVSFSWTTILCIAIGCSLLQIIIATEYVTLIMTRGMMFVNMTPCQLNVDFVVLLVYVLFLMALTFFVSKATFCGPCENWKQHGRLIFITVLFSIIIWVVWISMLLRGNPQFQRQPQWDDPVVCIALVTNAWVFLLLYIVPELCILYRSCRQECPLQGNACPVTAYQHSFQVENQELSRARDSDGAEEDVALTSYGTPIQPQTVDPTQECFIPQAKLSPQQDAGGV
T2 sequence (P07766 23-207 limits assumed, chain 1 of 3): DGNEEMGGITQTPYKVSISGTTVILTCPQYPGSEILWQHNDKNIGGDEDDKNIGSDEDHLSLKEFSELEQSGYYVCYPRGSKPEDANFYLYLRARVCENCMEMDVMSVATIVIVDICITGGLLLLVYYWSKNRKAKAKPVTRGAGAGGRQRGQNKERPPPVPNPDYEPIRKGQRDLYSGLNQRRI
T2 sequence (P04234 22-171 limits assumed, chain 2 of 3): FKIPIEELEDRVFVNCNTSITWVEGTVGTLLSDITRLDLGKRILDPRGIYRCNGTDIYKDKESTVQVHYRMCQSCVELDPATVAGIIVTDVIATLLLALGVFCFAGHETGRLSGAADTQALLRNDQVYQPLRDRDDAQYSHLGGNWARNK
T2 sequence (P09693 23-182 limits assumed, chain 3 of 3): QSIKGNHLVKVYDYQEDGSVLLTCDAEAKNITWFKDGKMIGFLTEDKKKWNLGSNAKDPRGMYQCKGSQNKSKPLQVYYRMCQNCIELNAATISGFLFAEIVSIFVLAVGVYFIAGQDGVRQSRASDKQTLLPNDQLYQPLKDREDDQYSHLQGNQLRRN

B2: Talquetamab (bispecific antibody, human IgG4 S228P, kappa, lambda, F234A L235A)
heavy 1: not shown
light 1: DIQMTQSPSSLSASVGDRVTITCKASQNVATHVGWYQQKPGKAPKRLIYSASYRYSGVPSRFSGSGSGTEFTLTISNLQPEDFATYYCQQYNRYPYTFGQGTKLEIKRTVAAPSVFIFPPSDEQLKSGTASVVCLLNNFYPREAKVQWKVDNALQSGNSQESVTEQDSKDSTYSLSSTLTLSKADYEKHKVYACEVTHQGLSSPVTKSFNRGEC
heavy 2: EVQLVESGGGLVQPGGSLRLSCAASGFTFNTYAMNWVRQAPGKGLEWVARIRSKYNNYATYYAASVKGRFTISRDDSKNSLYLQMNSLKTEDTAVYYCARHGNFGNSYVSWFAYWGQGTLVTVSSASTKGPSVFPLAPCSRSTSESTAALGCLVKDYFPEPVTVSWNSGALTSGVHTFPAVLQSSGLYSLSSVVTVPSSSLGTKTYTCNVDHKPSNTKVDKRVESKYGPPCPPCPAPEAAGGPSVFLFPPKPKDTLMISRTPEVTCVVVDVSQEDPEVQFNWYVDGVEVHNAKTKPREEQFNSTYRVVSVLTVLHQDWLNGKEYKCKVSNKGLPSSIEKTISKAKGQPREPQVYTLPPSQEEMTKNQVSLTCLVKGFYPSDIAVEWESNGQPENNYKTTPPVLDSDGSFLLYSKLTVDKSRWQEGNVFSCSVMHEALHNHYTQKSLSLSLGK
light 2: QTVVTQEPSLTVSPGGTVTLTCRSSTGAVTTSNYANWVQQKPGQAPRGLIGGTNKRAPGTPARFSGSLLGGKAALTLSGVQPEDEAEYYCALWYSNLWVFGGGTKLTVLGQPKAAPSVTLFPPSSEELQANKATLVCLISDFYPGAVTVAWKADSSPVKAGVETTTPSKQSNNKYAASSYLSLTPEQWKSHRSYSCQVTHEGSTVEKTVAPTECS
notes: Four polypeptide chains; also called benchmark; BM
EC50 (T cell surface CD3 [1]): 5.35 nM
Top(MFI) (T cell surface CD3 [1]): 155000 MFI
CD25/CD4 EC50(nM), activation of T cells in the presence of MM.1S (T cell surface CD3 [2]): 0.0637 nM
CD25/CD8 EC50(nM), activation of T cells in the presence of MM.1S (T cell surface CD3 [2]): 0.0592 nM
CD69/CD4 EC50(nM), activation of T cells in the presence of MM.1S (T cell surface CD3 [2]): 0.046 nM
CD69/CD8 EC50(nM), activation of T cells in the presence of MM.1S (T cell surface CD3 [2]): 0.0329 nM

B3: hu131-v2 (antibody, human IgG1, kappa, V domains shown)
VH: EVQLVQSGAEVVKPGASVKMSCKASGYTFTNYVMHWVKQAPGQGLEWIGYFNPYNDGTNYNEKFKGRATLTSDTSANTAYMELSSLRSEDTAVYYCARGGVRRYFDVWGQGTTVTVSS
VL: DIQMTQSPSSLSASVGDRVTITCRASQDIGSNLNWLQLGPGGAIKRLIYATFSLDSGVPSRFSGSRSGSDYTLTISSLQPEDFVDYYCQQYANFPPTFGGGTKVEIKR
notes: Humanized antibody of Chi-131
binding result (human GPRC5D protein): binds

B5: hu131-v4 (antibody, human IgG1, kappa, V domains shown)
VH: B3 VH with D56E
VL: B3 VL
notes: Humanized antibody of Chi-131
binding result (human GPRC5D protein): binds

Results, then the binder that gave them:

binding result (human GPRC5D protein): binds
B1: hu128-v1 (antibody, human IgG1, kappa, V domains shown)
VH: EVQLVESGGGLVQPGGSRRVSCAASGFTFSSFGMHWVRQAPGKGLEWVAYISRGSSTIYYADTVKGRFTISRDNAKNSLYLQMNSLRAEDTAVYYCARSGYGSSSYYFDYWGQGTTVTVSS
VL: EIVLTQSPATLSASPGERATMSCRASSSIRSSYLHWYQQKPGQSPRLWIYSTSNLASGVPARFSGSGSGTDYTLTISSLEPEDAAVYYCQQFSGYPLTFGGGTKVEIKR

binding result (human GPRC5D protein): binds
B4: hu131-v1 (antibody, human IgG1, kappa, V domains shown)
VH: B3 VH with I48M, A68V
VL: B3 VL
notes: Humanized antibody of Chi-131

binding result (human GPRC5D protein): binds
B6: hu131-v3 (antibody, human IgG1, kappa, V domains shown)
VH: B3 VH with G57A
VL: B3 VL
notes: Humanized antibody of Chi-131
